The experiment has as its target T1, eIF3c/NIP1 (S. cerevisiae, UniProt P32497 1-812).
T1 construct: eIF3c/NIP1 subunit of yeast eIF3; 50 ug = 0.5 nmol (about 100 kDa) fits a whole protein (surmise); source: purified
The experiment can be described thus: ITC; VP-ITC; 100 uM a/TIF32^276-494 injected in 20 ul aliquots into the cell with 10 uM c/NIP1; 150 mM KCl, 10 mM Hepes pH 7.5, 5% glycerol. To be noted: both partners purified. (In general: In ITC the heat of successive injections is recorded.)

T1 sequence (P32497 whole entry): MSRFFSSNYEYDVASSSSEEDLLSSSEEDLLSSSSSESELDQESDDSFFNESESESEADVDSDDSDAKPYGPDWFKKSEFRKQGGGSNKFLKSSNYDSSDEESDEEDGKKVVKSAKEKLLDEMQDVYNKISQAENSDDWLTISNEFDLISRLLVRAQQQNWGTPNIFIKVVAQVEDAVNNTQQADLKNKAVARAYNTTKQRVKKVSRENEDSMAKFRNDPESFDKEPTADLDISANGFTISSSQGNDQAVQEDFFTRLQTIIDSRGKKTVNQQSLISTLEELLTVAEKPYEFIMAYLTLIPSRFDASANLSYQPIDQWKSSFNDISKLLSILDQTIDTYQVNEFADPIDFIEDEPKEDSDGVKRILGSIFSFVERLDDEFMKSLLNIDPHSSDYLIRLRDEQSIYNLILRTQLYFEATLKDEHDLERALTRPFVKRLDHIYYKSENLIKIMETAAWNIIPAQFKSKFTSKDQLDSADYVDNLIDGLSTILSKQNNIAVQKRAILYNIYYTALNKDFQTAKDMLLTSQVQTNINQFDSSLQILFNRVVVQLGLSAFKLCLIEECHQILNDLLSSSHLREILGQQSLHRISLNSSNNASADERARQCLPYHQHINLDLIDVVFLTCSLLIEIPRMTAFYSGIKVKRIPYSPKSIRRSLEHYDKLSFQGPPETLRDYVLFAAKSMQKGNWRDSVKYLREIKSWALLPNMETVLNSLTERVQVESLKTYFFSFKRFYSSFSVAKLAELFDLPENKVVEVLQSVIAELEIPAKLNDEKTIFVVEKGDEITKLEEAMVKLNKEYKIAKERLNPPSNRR

B1: a/TIF32^276-494 (PCI domain of eIF3a/TIF32) (domain or fragment, S. cerevisiae, UniProt P38249 276-494, looked up)
chain: PSTLANYYENLVKVFFVSGDPLLHTTAWKKFYKLYSTNPRATEEEFKTYSSTIFLSAISTQLDEIPSIGYDPHLRMYRLLNLDAKPTRKEMLQSIIEDESIYGKVDEELKELYDIIEVNFDVDTVKQQLENLLVKLSSKTYFSQYIAPLRDVIMRRVFVAASQKFTTVSQSELYKLATLPAPLDLSAWDIEKSLLQAAVEDYVSITIDHESAKVTFAKD
notes: Detailed purification scheme is in Supplementary Methods; also called a/TIF32-PCI; a/TIF32 PCI domain
With B1, binding was put at a Kd of 158 nM, the dH was -10.2 kcal/mol and the “stoichiometry N” value is 0.944.

By Kd is commonly meant the concentration at which binding is half-saturated. Lower therefore signals a tighter complex. In general, stoichiometry N refers to the number of molecules, sites or subunits per partner or assembly.
